Laboratory results from IntAct's records for PubMed 31515488.

B1: Embryonal Fyn-associated substrate (Homo sapiens), O43281 (parent)
chain: MAIATSTQLARALYDNTAESPQELSFRRGDVLRVLQREGAGGLDGWCLCSLHGQQGIVPANRVKLLPAGPAPKPSLSPASPAQPGSPYPAPDHSNEDQEVYVVPPPARPCPTSGPPAGPCPPSPDLIYKIPRASGTQLAAPRDALEVYDVPPTALRVPSSGPYDCPASFSHPLTRVAPQPPGEDDAPYDVPLTPKPPAELEPDLEWEGGREPGPPIYAAPSNLKRASALLNLYEAPEELLADGEGGGTDEGIYDVPLLGPEAPPSPEPPGALASHDQDTLAQLLARSPPPPHRPRLPSAESLSRRPLPALPVPEAPSPSPVPSPAPGRKGSIQDRPLPPPPPRLPGYGGPKVEGDPEGREMEDDPAGHHNEYEGIPMAEEYDYVHLKGMDKAQGSRPPDQACTGDPELPERGMPAPQEALSPGEPLVVSTGDLQLLYFYAGQCQSHYSALQAAVAALMSSTQANQPPRLFVPHSKRVVVAAHRLVFVGDTLGRLAASAPLRAQVRAAGTALGQALRATVLAVKGAALGYPSSPAIQEMVQCVTELAGQALQFTTLLTSLAP
partner: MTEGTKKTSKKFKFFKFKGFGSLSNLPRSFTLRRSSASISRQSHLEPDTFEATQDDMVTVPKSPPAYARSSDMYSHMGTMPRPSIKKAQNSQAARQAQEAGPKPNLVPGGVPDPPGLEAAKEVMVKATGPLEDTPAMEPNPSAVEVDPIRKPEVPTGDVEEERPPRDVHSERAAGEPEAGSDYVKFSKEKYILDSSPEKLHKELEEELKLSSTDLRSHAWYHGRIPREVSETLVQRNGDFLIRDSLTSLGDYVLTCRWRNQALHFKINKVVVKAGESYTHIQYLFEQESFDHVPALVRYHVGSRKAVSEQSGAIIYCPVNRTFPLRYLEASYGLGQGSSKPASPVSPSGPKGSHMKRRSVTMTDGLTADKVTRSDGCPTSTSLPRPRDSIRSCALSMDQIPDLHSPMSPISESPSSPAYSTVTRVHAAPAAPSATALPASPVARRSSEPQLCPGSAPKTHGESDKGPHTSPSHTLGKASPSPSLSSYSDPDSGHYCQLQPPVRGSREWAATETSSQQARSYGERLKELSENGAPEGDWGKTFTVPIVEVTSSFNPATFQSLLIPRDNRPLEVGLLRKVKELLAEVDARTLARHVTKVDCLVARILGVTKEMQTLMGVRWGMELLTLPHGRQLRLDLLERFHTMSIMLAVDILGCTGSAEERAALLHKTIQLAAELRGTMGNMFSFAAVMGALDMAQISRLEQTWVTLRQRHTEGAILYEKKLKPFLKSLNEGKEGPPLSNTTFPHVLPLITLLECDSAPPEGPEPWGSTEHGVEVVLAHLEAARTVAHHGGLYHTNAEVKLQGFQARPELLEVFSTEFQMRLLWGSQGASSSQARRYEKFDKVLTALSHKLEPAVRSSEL
B2: Growth arrest and DNA damage-inducible protein GADD45 gamma (Homo sapiens), O95257 (parent)
chain: MTLEEVRGQDTVPESTARMQGAGKALHELLLSAQRQGCLTAGVYESAKVLNVDPDNVTFCVLAAGEEDEGDIALQIHFTLIQAFCCENDIDIVRVGDVQRLAAIVGAGEEAGAPGDLHCILISNPNEDAWKDPALEKLSLFCEESRSVNDWVPSITLPE
B3: Zinc finger protein Aiolos (Homo sapiens), Q9UKT9-1 (parent)
chain: MEDIQTNAELKSTQEQSVPAESAAVLNDYSLTKSHEMENVDSGEGPANEDEDIGDDSMKVKDEYSERDENVLKSEPMGNAEEPEIPYSYSREYNEYENIKLERHVVSFDSSRPTSGKMNCDVCGLSCISFNVLMVHKRSHTGERPFQCNQCGASFTQKGNLLRHIKLHTGEKPFKCHLCNYACQRRDALTGHLRTHSVEKPYKCEFCGRSYKQRSSLEEHKERCRTFLQSTDPGDTASAEARHIKAEMGSERALVLDRLASNVAKRKSSMPQKFIGEKRHCFDVNYNSSYMYEKESELIQTRMMDQAINNAISYLGAEALRPLVQTPPAPTSEMVPVISSMYPIALTRAEMSNGAPQELEKKSIHLPEKSVPSERGLSPNNSGHDSTDTDSNHEERQNHIYQQNHMVLSRARNGMPLLKEVPRSYELLKPPPICPRDSVKVINKEGEVMDVYRCDHCRVLFLDYVMFTIHMGCHGFRDPFECNMCGYRSHDRYEFSSHIARGEHRALLK

Variants of: B1
Conditions: with sh2d3_human SH2D3C

Variant	effect of a mutation on the interaction
A140D	with no effect
S265F	with no effect

Variants of: B2
Conditions: with af1l1_human AFAP1L1, Q8TED9
Sequence of af1l1_human AFAP1L1, Q8TED9 (Q8TED9 whole entry): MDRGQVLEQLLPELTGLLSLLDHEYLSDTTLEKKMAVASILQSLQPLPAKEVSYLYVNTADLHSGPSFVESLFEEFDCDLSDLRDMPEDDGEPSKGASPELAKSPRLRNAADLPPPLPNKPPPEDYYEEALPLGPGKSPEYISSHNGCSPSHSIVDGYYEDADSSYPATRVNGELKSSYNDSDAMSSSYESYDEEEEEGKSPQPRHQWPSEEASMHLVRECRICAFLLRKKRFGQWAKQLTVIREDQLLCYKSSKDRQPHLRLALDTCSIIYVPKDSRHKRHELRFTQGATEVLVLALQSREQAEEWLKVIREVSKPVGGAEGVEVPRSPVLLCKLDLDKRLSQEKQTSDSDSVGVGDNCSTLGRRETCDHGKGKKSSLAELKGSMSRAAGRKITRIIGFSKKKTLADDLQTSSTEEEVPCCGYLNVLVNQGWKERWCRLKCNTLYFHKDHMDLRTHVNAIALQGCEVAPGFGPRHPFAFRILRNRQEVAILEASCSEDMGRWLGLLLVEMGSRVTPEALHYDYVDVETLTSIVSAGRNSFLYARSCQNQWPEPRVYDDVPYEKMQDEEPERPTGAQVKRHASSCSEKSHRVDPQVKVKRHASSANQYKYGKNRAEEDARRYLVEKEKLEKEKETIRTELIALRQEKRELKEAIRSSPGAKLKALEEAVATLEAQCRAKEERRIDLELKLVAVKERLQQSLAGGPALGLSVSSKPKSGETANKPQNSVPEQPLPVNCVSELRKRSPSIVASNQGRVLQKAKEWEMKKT

Variant	effect of a mutation on the interaction
G112S	with no effect

Variants of: B2
Conditions: with rwd2b_human RWDD2B

Variant	effect of a mutation on the interaction
G112S	disrupting interaction strength

Variants of: B3
Conditions: with aakb2_human PRKAB2, O43741
Sequence of aakb2_human PRKAB2, O43741 (O43741 whole entry): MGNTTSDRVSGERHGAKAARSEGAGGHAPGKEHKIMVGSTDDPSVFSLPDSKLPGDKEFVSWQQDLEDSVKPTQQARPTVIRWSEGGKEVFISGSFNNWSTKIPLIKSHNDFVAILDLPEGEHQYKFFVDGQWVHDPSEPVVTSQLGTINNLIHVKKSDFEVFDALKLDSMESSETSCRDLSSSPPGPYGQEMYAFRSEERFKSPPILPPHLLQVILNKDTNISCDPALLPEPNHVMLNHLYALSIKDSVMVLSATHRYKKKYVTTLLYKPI

Variant	effect of a mutation on the interaction
I338M	with no effect

Variants of: B3
Conditions: with pfd5_human PFDN5, Q99471
Sequence of pfd5_human PFDN5, Q99471 (Q99471 whole entry): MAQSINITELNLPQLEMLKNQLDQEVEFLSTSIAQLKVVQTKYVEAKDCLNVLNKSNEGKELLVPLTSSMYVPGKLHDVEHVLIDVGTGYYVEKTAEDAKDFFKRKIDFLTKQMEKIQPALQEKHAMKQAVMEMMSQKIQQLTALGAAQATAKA

Variant	effect of a mutation on the interaction
I338M	with no effect

Variants of: B3
Conditions: with p85b_human PIK3R2, O00459
Sequence of p85b_human PIK3R2, O00459 (O00459 whole entry): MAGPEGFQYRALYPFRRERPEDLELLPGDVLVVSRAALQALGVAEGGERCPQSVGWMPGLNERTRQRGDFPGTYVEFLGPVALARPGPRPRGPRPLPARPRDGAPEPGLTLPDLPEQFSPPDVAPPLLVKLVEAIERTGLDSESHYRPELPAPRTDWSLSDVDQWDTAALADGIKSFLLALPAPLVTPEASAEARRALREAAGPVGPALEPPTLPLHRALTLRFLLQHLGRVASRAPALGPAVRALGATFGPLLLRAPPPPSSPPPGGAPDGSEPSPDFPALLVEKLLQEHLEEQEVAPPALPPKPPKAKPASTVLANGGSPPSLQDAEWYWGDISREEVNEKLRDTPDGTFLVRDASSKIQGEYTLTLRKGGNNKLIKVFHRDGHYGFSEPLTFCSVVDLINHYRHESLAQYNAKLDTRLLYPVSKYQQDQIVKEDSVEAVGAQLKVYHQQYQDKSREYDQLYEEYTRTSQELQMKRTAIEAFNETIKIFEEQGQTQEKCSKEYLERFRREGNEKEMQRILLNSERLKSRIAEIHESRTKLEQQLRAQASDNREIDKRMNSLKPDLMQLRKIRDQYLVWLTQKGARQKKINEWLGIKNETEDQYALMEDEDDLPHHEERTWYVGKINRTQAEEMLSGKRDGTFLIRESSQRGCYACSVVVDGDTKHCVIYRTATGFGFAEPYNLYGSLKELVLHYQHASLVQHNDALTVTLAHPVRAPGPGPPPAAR

Variant	effect of a mutation on the interaction
I338M	with no effect

Variants of: B3
Conditions: with aakb2_human PRKAB2, O43741
Remark: another data set of the same source

Variant	effect of a mutation on the interaction
A24V	with no effect
N119D	with no effect

Variants of: B3
Conditions: with exoc8_human EXOC8, Q8IYI6
Sequence of exoc8_human EXOC8, Q8IYI6 (Q8IYI6 whole entry): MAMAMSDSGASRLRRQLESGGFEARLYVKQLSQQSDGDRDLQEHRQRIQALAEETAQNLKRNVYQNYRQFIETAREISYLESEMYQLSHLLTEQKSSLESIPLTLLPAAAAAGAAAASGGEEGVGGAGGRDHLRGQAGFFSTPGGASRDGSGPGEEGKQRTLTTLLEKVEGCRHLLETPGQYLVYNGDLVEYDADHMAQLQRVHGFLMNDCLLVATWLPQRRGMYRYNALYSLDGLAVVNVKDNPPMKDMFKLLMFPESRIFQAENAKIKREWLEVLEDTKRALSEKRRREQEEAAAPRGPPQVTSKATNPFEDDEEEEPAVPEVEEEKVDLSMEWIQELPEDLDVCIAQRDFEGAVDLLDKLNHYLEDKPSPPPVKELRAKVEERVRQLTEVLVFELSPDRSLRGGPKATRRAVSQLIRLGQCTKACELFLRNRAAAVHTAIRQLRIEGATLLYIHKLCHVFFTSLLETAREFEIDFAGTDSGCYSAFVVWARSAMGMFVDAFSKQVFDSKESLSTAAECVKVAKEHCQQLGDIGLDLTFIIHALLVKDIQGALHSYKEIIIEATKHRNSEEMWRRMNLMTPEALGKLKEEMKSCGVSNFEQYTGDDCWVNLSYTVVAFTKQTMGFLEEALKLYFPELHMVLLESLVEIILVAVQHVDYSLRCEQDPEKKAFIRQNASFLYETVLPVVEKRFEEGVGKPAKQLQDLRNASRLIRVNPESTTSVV

Variant	effect of a mutation on the interaction
A24V	with no effect
N119D	with no effect

Variants of: B3
Conditions: with tb22b_human TBC1D22B

Variant	effect of a mutation on the interaction
A24V	with no effect
N119D	with no effect

Variants of: B3
Conditions: with p85b_human PIK3R2, O00459
Remark: another data set of the same source

Variant	effect of a mutation on the interaction
A24V	with no effect
N119D	disrupting interaction strength

Variants of: B3
Conditions: with rpac1_human POLR1C

Variant	effect of a mutation on the interaction
A24V	with no effect
N119D	with no effect

Variants of: B3
Conditions: with pfd5_human PFDN5, Q99471
Remark: another data set of the same source

Variant	effect of a mutation on the interaction
A24V	with no effect
N119D	with no effect

Variants of: B3
Conditions: with nek6_human NEK6, Q9HC98
Sequence of nek6_human NEK6, Q9HC98 (Q9HC98 whole entry): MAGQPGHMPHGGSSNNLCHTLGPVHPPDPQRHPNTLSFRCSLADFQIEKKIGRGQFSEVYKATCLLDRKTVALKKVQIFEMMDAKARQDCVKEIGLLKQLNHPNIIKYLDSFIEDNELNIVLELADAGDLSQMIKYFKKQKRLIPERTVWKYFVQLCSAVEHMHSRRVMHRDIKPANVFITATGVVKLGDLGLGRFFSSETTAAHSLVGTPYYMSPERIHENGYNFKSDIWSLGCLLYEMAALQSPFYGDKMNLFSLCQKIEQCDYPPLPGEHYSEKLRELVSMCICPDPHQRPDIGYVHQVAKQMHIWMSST

Variant	effect of a mutation on the interaction
A24V	with no effect
N119D	with no effect

Variants of: B3
Conditions: with exos5_human EXOSC5, Q9NQT4
Sequence of exos5_human EXOSC5, Q9NQT4 (Q9NQT4 whole entry): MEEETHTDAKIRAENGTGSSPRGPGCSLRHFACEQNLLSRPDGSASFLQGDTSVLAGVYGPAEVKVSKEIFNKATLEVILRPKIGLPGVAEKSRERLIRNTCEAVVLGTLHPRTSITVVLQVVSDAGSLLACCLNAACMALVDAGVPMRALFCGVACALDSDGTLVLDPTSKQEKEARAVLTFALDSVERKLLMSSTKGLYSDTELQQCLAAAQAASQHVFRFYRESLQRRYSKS

Variant	effect of a mutation on the interaction
A24V	with no effect
N119D	with no effect

Variants of: B3
Conditions: with tstd2_human TSTD2, Q5T7W7
Sequence of tstd2_human TSTD2, Q5T7W7 (Q5T7W7 whole entry): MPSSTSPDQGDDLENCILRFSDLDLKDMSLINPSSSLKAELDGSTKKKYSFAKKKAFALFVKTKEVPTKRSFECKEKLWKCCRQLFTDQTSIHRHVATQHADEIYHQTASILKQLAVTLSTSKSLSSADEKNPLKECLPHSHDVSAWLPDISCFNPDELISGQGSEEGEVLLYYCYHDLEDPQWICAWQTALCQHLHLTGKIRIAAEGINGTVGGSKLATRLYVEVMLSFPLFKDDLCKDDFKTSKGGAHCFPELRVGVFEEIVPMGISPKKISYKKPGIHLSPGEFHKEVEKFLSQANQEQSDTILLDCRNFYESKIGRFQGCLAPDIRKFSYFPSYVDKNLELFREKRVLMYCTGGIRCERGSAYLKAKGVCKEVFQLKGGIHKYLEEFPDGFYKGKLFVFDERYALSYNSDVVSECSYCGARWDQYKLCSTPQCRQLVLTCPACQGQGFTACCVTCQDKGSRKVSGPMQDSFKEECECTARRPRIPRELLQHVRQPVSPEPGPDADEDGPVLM

Variant	effect of a mutation on the interaction
A24V	with no effect
N119D	with no effect
